# Data as given in patent US8076087B2, “Galectin sequences and compositions and methods utilizing same for treating or diagnosing arthritis and other chronic inflammatory diseases” (Medical Research Fund of Tel Aviv Souraskv Medical Center, priority 2002, dated 2011).
# B1: galectin-8 variant 2: recombinant galectin-8 variant 2 polypeptide, SEQ ID NO: 8, isoform found in synovial fluid cells of arthritic patients (protein)
# chain: MMLSLNNLENIIYNPYIPYVGTIPDQLDPGTLIVICGHVPSDADRFQVDLQNGSSVKPRADVAFHFNPRFKRAGCIVCNTLINEKWGREEITYDTPFKREKSFEIVIMVLKDKFQDLQSTQASSLELTEISRENVPKSGTPQLSLPFAARLNTPMGPGRTVVVKVRSECKCQKMIIYCDVREFKVAVNGVHSLEYKHRFKELSSIDTLEINGDIHLLEVRSW
# B2: galectin-8: recombinant human galectin-8 polypeptide, SEQ ID NO: 4, expressed in E. coli (protein)
# chain: MLSLNNLQNIIYNPVIPYVGTIPDQLDPGTLIVICGHVPSDADRFQVDLQNGSSVKPRADVAFHFNPRFKRAGCIVCNTLINEKWGREEITYDTPFKREKSFEIVIMVLKDKFQVAVNGKHTLLYGHRIGPEKIDTLGIYGKVNIHSIGFSFSSDLQSTQASSLELTEISRENVPKSGTPQLSLPFAARLNTPMGPGRTVVVKGEVNANAKSFNVDLLAGKSKDIALHLNPRLNIKAFVRNSFLQESWGEEERNITSFPFSPGMYFEMIIYCDVREFKVAVNGVHSLEYKHRFKELSSIDTLEINGDIHLLEVRSW
# What was measured:
# [1] = system: synovial fluid cells from RA patients; assay: Apoptosis induction, annexin V/PI flow cytometry, synovial fluid cells; format: cell-based, human; conditions: for total cell population in the apoptotic area: untreated control 19%
# Experimental: (§1) The assay was performed by Phosphatidyl Serine Detection Kit (IOP-116F FITC-conjugated, IQ Products, The Netherlands) using the manufacturer instructions. Human fibroblast cells from OA patients, synovial fluid cells and PBLs from RA and other arthritic patients were incubated with increasing concentrations of galectin-8 variants 1 and 2 (50-2000 ng/ml). Specific binding of annexin V was performed by the incubation of cells for 20 minutes on ice in a binding calcium buffer containing a saturating concentration of annexin V-fluorescein isothiocyanate (FITC) and propdium iodide (PI). After incubation, the cells were pelleted, and analyzed in FACS analyzer (Beckton Dickinson, San Jose, Calif.). Annexin V^+/PI^+ cells were defined as necrotic, while annexin V^+/PI^− cells were defined as apoptotic. The percent of the apoptotic cells of the total cells was determined.
# [2] = system: collagen induced arthritis (CIA); assay: Collagen-induced arthritis (CIA) in DBA/1 mice, footpad thickness; format: in vivo; conditions: 100 μg per injection, IP / systemic, from disease onset every day for 11 days
# Description: Animal treatment: 44 DBA/1 mice were induced with a joint inflammatory disease by two subcutaneous (s.c.) injections into the base of the tail of type II collagen three weeks apart. Joint inflammation, which appears several days after the last collagen injection, causes enhanced marked foot pad swelling, as well as swelling of other joints. The diameter of nonarthritic footpads is 1.5 to 1.7 mm. A footpad diameter of 1.9 to 2.0 mm was arbitrarily set as disease onset. […] Human galectin-8 protein and variants (100 μg per injection) as well as control injections were injected IP at disease onset and then every day for 11 days. The 44 mice were divided into 5 experimental groups as follows: Group 1 (negative control): systemic injection (starting at CIA onset) of PBS or PBS+30% glycerol (storing dilution solution of galectin proteins) (10 mice). Group 2 (positive control): systemic injection (starting at CIA onset) of anti-mouse TNFα mAb (cat. no. AMC-3012, Biosource Int. Inc. USA) adhering to the standard protocol (i.e., 100 μg antibody/mouse every day for 11 days) (6 mice). Group 3 (positive control): systemic injection of human galectin-8 protein according to the standard protocol (10 mice). Group 4: systemic injection of 100 μg per dose of human galectin-8 variant 1 according to the standard protocol (10 mice). Group 5: systemic injection of 100 μg per dose of human galectin-8 variant 2 (8 mice). The effect on footpad thickness was determined in a “blind” fashion, recording the electronic microcaliper measurements of the thickness of the joints, by picking the animals at random and recording their ears' signs following measurement. The mice were bled prior to disease induction, following disease onset and upon termination of the experiment (approximately day 11). The sera were stored and later analyzed for the presence of rheumatoid factor (RF) and cytokines. The mice were killed upon termination of the experiment and the joints removed from some of the animals for histopathological examination.
# IL-1ra = IL-1ra levels in media of LPS-supplemented human synovial tissue / cell cultures, sandwich enzyme immunoassay; format: cell-based; conditions: for IL-1ra levels in media / increase of IL-1ra levels: LPS 3 μg/ml, 48 hours; for IL-1ra levels in media: 50-2000 ng/ml; for increase of IL-1ra levels: synovial tissue culture, vs LPS treated control
# Experimental: (§2) Specimen Selection and Culture Conditions: Synovial tissues were obtained from patients undergoing total knee or hip replacement for osteoarthritis (OA). Within 2 hours of removal, synovial tissues were cut into small pieces, of a few millimeters in diameter. Synovial fibroblasts were cultured in 2 ml RPMI 1640 supplemented with 2 mM L-glutamine, 100 U/ml penicillin and 100 μg/ml streptomycin sulphate (Biological Industries).
# (§3) Inflammatory cells and PBLs derived from joints of rheumatoid arthritic (RA) patients were cultured individually [RPMI-1640 (Sigma, Israel)]. The murine fibroblast line, NIH 3T3, was used as a control. The recombinant galectin-8 peptide (r-galectin-8) was added to the culture medium of the synovial fibroblasts at a concentration of 0.125 μM, 0.25 μM, 0.5 μM and 1 μM) together with lipopolysaccharide (LPS, 3 μg/ml). The recombinant galectin-8 peptide variants (r-galectin-8 variant 1 and r-galectin-8 variant 2) were added to all the culture mediums in the following concentrations: 50 ng/ml, 125 ng/ml, 250 ng/ml, 500 ng/ml, 750 ng/ml, 1 μg/ml and 2 μg/ml together with lipopolysaccharide (LPS, 3 μg/ml). Following 48 hours of incubation (37° C., 5% CO2), the measurement of IL-1β, TNF-α and IL-1ra production was performed in supernatants by quantitative sandwich enzyme immunoassay technique (R&D Systems, Inc., USA). Detection limits were 1 pg/ml to 14 pg/ml. IL-1ra production was tested with and without the addition of lipopolysaccharide (LPS, 3 μg/ml) to the culture media.
# IL-1β = IL-1β levels in media of LPS-supplemented human synovial tissue / cell cultures, sandwich enzyme immunoassay; format: cell-based; conditions: for IL-1β levels in media / decrease of IL-1β levels: LPS 3 μg/ml, 48 hours; for IL-1β levels in media: 50-2000 ng/ml; for decrease of IL-1β levels: synovial tissue culture
# Experimental: as §2, §3
# [3] = system: human fibroblasts from OA patients; assay: Apoptosis induction, annexin V/PI flow cytometry, OA fibroblasts; format: cell-based; conditions: for total cell population in the apoptotic area: 24 h, no-addition control 39.5%
# Experimental: as §1
# [4] = system: PBLs of arthritic patients; assay: Apoptosis induction, annexin V/PI flow cytometry, PBLs; format: cell-based, human; conditions: lowest concentration 50 ng/ml
# Experimental: as §1
# TNFα = TNFα levels in media of LPS-supplemented human synovial tissue / cell cultures, sandwich enzyme immunoassay; format: cell-based; conditions: for TNFα levels in media / decrease of TNFα levels: LPS 3 μg/ml, 48 hours; for TNFα levels in media: 50-2000 ng/ml; for decrease of TNFα levels: synovial tissue culture
# Experimental: as §2, §3
# [5] = system: PBLs of arthritic patients; assay: Flow cytometry of recombinant galectin-8 binding to PBLs (anti-galectin-8 immunostaining); format: cell-based, human; conditions: 1 μM added to PBLs
# Experimental: (§4) Peripheral white blood cells and the total cell population from synovial fluids of arthritic patients were isolated (approximately 10^7 cells) on a Ficoll gradient (Robbins Scientific Corporation, Sunngvale, Calif., USA) and analyzed by flow cytometry using anti-galectin-8 polyclonal antibody (generated in rabbits according to prior art protocols).
# (§5) Specific binding of anti-galectin-8 was performed by the incubation of cells for 20 minutes on ice in a binding calcium buffer containing a saturating concentration of anti-galectin-8. Thereafter, a second incubation with a goat-anti-rat conjugated to fluorescein isothiocyanate (FITC) was effected. After incubation, the cells were pelleted, and analyzed in FACS analyzer (Beckton Dickinson, San Jose, Calif.). Following the initial analysis, recombinant galectin-8 (as prepared in Example 1) (1 μM) was added to both the synovial fluid cells and the PBLs to verify that recombinant galectin-8 may be detected by immunostaining with anti-galectin-8 polyclonal antibody.
# [6] = system: synovial fluid cells of arthritic patients; assay: Flow cytometry of recombinant galectin-8 binding to synovial fluid cells (anti-galectin-8 immunostaining); format: cell-based, human; conditions: 1 μM added to synovial fluid cells
# Experimental: as §4, §5
# [7] = human fibroblasts from OA patients
# [8] = 0.25 μM, 0.5 μM and 1 μM, vs LPS treated control, dose dependent
# [9] = 0.125 μM, vs LPS treated control
# [10] = 0.25 μM, vs LPS treated control
molecule,measurement,setting,value
"COc1cccc2c1C(=O)c1c(O)c3c(c(O)c1C2=O)C[C@@](O)(C(=O)CO)C[C@@H]3O[C@H]1C[C@H](N)[C@H](O)[C@H](C)O1 [doxorubicine, reference compound]",total cell population in the necrotic area,"[1]; 24 h, 150 μg/ml, positive control",80%
B1,CIA manifestations (footpad swelling),[2],did not influence
same,IL-1ra levels in media,IL-1ra; PBLs of RA patients,significantly and dose-dependently increased
same,IL-1ra levels in media,IL-1ra; [7],significantly and dose-dependently increased
same,IL-1ra levels in media,IL-1ra; synovial fluid cells (SFCs),significantly and dose-dependently increased
same,maximal apoptotic effect,"[1]; inflammatory cells from joints of arthritic patients, lowest concentration 50 ng/ml",approximately 100%
same,IL-1β levels in media,IL-1β; PBLs from RA patients,significantly and dose-dependently inhibited
same,IL-1β levels in media,IL-1β; [7],significantly and dose-dependently inhibited
same,IL-1β levels in media,IL-1β; synovial fluid cells (SFCs),significantly and dose-dependently inhibited
same,total cell population in the apoptotic area,[3]; 125 ng/ml,52.2%
same,total cell population in the apoptotic area,[3]; 250 ng/ml,50.8%
same,total cell population in the apoptotic area,[3]; 500 ng/ml,62%
same,total cell population in the apoptotic area,[3]; 750 ng/ml,59%
same,total cell population in the apoptotic area,[3]; 1000 ng/ml,71.4%
same,total cell population in the apoptotic area,[3]; 2000 ng/ml,77.4%
same,percentage of apoptotic cells,[3]; increasing concentrations (50-2000 ng/ml),gradually increased
same,maximal apoptotic effect,[4],approximately 100%
same,TNFα levels in media,TNFα; PBLs from RA patients,significantly and dose-dependently inhibited
same,TNFα levels in media,TNFα; [7],significantly and dose-dependently inhibited
same,TNFα levels in media,TNFα; synovial fluid cells (SFCs),significantly and dose-dependently inhibited
B2,CIA manifestations (footpad swelling),[2],substantially reduced
same,IL-1ra production in the media of human synovial tissue,"IL-1ra; 0.25 μM, 0.5 μM and 1 μM, vs untreated control, dose dependent",increased
same,increase of IL-1ra levels,IL-1ra; 0.25 μM,approximately 4 fold
same,increase of IL-1ra levels,IL-1ra; 0.5 μM,~9 fold
same,increase of IL-1ra levels,IL-1ra; 1 μM,~22 fold
same,apoptotic effects in human synovial fluid cells,"[1]; 0.03 μM, 0.1 μM, 0.3 μM and 1 μM, dose dependent, vs serum free medium",induced apoptotic effects
same,total cell population in the apoptotic area,"[1]; 24 h, 0.03 μM",17%
same,total cell population in the apoptotic area,"[1]; 24 h, 0.1 μM",20%
same,total cell population in the apoptotic area,"[1]; 24 h, 0.3 μM",23%
same,increase in apoptosis development,"[1]; 24 h, 1 μM, vs untreated control",3 fold
same,total cell population in the apoptotic area,"[1]; 24 h, 1 μM",58%
same,detection of added recombinant galectin-8 on cells by anti-galectin-8 immunostaining,[5],detected
same,IL-1β release in the media of human synovial tissue,IL-1β; [8],inhibited
same,decrease of IL-1β levels,IL-1β; [9],approximately 9%
same,decrease of IL-1β levels,IL-1β; [10],~42%
same,decrease of IL-1β levels,"IL-1β; 0.5 μM, vs LPS treated control",~67%
same,TNF-α release in the media of human synovial tissue,TNFα; [8],inhibited
same,decrease of TNFα levels,TNFα; [9],approximately 2%
same,decrease of TNFα levels,TNFα; [10],~43%
same,decrease of TNFα levels,"TNFα; 0.5 μM, vs LPS treated control",~74%
same,detection of added recombinant galectin-8 on cells by anti-galectin-8 immunostaining,[6],detected
